Here are results for five proteins from patent US20240102052A1 (VNV NEWCO, published 2024).

B1: PNMA2 C136S mutant (other)
chain: MALALLEDWCRIMSVDEQKSLMVTGIPADFEEAEIQEVLQETLKSLGRYRLLGKIFRKQENANAVLLELLEDTDVSAIPSEVQGKGGVWKVIFKTPNQDTEFLERLNLFLEKEGQTVSGMFRALGQEGVSPATVPSISPELLAHLLGQAMAHAPQPLLPMRYRKLRVFSGSAVPAPEEESFEVWLEQATEIVKEWPVTEAEKKRWLAESLRGPALDLMHIVQADNPSISVEECLEAFKQVFGSLESRRTAQVRYLKTYQEEGEKVSAYVLRLETLLRRAVEKRAIPRRIADQVRLEQVMAGATLNQMLWCRLRELKDQGPPPSFLELMKVIREEEEEEASFENESIEEPEERDGYGRWNHEGDD
B2: PNMA2 C10S mutant (other)
chain: MALALLEDWSRIMSVDEQKSLMVTGIPADFEEAEIQEVLQETLKSLGRYRLLGKIFRKQENANAVLLELLEDTDVSAIPSEVQGKGGVWKVIFKTPNQDTEFLERLNLFLEKEGQTVSGMFRALGQEGVSPATVPCISPELLAHLLGQAMAHAPQPLLPMRYRKLRVFSGSAVPAPEEESFEVWLEQATEIVKEWPVTEAEKKRWLAESLRGPALDLMHIVQADNPSISVEECLEAFKQVFGSLESRRTAQVRYLKTYQEEGEKVSAYVLRLETLLRRAVEKRAIPRRIADQVRLEQVMAGATLNQMLWCRLRELKDQGPPPSFLELMKVIREEEEEEASFENESIEEPEERDGYGRWNHEGDD
B3: PNMA2 C310S mutant (other)
chain: MALALLEDWCRIMSVDEQKSLMVTGIPADFEEAEIQEVLQETLKSLGRYRLLGKIFRKQENANAVLLELLEDTDVSAIPSEVQGKGGVWKVIFKTPNQDTEFLERLNLFLEKEGQTVSGMFRALGQEGVSPATVPCISPELLAHLLGQAMAHAPQPLLPMRYRKLRVFSGSAVPAPEEESFEVWLEQATEIVKEWPVTEAEKKRWLAESLRGPALDLMHIVQADNPSISVEECLEAFKQVFGSLESRRTAQVRYLKTYQEEGEKVSAYVLRLETLLRRAVEKRAIPRRIADQVRLEQVMAGATLNQMLWSRLRELKDQGPPPSFLELMKVIREEEEEEASFENESIEEPEERDGYGRWNHEGDD
B4: wild type PNMA2 (other)
chain: MALALLEDWCRIMSVDEQKSLMVTGIPADFEEAEIQEVLQETLKSLGRYRLLGKIFRKQENANAVLLELLEDTDVSAIPSEVQGKGGVWKVIFKTPNQDTEFLERLNLFLEKEGQTVSGMFRALGQEGVSPATVPCISPELLAHLLGQAMAHAPQPLLPMRYRKLRVFSGSAVPAPEEESFEVWLEQATEIVKEWPVTEAEKKRWLAESLRGPALDLMHIVQADNPSISVEECLEAFKQVFGSLESRRTAQVRYLKTYQEEGEKVSAYVLRLETLLRRAVEKRAIPRRIADQVRLEQVMAGATLNQMLWCRLRELKDQGPPPSFLELMKVIREEEEEEASFENESIEEPEERDGYGRWNHEGDD
notes: Self-associating capsid subunit
B5: PNMA2 C233S mutant (other)
chain: MALALLEDWCRIMSVDEQKSLMVTGIPADFEEAEIQEVLQETLKSLGRYRLLGKIFRKQENANAVLLELLEDTDVSAIPSEVQGKGGVWKVIFKTPNQDTEFLERLNLFLEKEGQTVSGMFRALGQEGVSPATVPCISPELLAHLLGQAMAHAPQPLLPMRYRKLRVFSGSAVPAPEEESFEVWLEQATEIVKEWPVTEAEKKRWLAESLRGPALDLMHIVQADNPSISVEESLEAFKQVFGSLESRRTAQVRYLKTYQEEGEKVSAYVLRLETLLRRAVEKRAIPRRIADQVRLEQVMAGATLNQMLWCRLRELKDQGPPPSFLELMKVIREEEEEEASFENESIEEPEERDGYGRWNHEGDD

This series concerns the molecule itself. Nature of the series: SDS-PAGE and western blot, self-association. A general note: A western blot detects proteins with antibodies after separation by electrophoresis.
Consider B1, for which the binding result is listed as “binds”.

For B2, the binding result is given as “binds”.

Take B3: the binding result is “binds”.

In the case of B4, the binding result is listed as “binds”.

Turning to B5, the binding result is “binds”.
